Each block holds one molecule with its values, some of them ahead of it.
Experiments:
[1] = molecular target: Flt4 receptor tyrosine kinase (VEGFR-3) expressed on cells (human) (UniProt P35916); assay: Scatchard analysis with 125I-labelled VEGF-C ΔNΔCHis (cell binding, PAE/VEGFR-3 cells)
[2] = molecular target: T1, recombinant Flt4 extracellular domain with C-terminal 6xHis tag (baculovirus), coupled to Sepharose (human, UniProt P35916 25-775); assay: depletion with Flt4EC affinity matrix, read out by VEGFR-2 phosphorylation
T1 construct: extracellular domain; also called Flt4EC; Flt4 EC
T1 sequence: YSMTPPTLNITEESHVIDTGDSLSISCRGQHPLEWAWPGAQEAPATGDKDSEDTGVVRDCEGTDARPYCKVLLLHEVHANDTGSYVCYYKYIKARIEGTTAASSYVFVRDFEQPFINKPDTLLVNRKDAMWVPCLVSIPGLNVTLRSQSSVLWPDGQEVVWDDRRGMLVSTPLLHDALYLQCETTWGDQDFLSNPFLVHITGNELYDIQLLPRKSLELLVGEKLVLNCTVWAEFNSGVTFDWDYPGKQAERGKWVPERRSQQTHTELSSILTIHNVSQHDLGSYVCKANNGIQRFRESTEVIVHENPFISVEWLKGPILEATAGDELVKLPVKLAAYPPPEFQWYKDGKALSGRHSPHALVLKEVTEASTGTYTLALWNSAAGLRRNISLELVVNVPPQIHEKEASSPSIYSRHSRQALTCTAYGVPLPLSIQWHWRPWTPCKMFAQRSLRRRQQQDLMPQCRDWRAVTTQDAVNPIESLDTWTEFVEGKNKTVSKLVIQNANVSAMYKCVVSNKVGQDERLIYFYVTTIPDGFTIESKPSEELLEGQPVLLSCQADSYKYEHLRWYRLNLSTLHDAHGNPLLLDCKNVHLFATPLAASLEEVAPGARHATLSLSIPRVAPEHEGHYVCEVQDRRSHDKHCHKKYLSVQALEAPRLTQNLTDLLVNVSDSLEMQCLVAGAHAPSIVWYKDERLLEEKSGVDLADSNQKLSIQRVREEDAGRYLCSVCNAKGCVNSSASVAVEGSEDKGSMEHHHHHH

[3] = molecular target: T2, 32 kD VEGF-C polypeptide (amino acids 32-227 of prepro-VEGF-C) (human, UniProt P49767 32-227); assay: non-reducing and reducing SDS-PAGE of immunoprecipitates
T2 construct: also called 32 kD form; 31 kD
T2 sequence: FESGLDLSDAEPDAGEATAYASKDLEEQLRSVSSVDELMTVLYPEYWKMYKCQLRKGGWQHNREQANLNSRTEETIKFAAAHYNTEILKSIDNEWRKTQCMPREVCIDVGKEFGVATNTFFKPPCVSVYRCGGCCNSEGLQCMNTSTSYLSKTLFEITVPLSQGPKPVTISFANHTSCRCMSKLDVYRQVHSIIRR
Method: The immunoprecipitates from each cell culture were subjected to SDS-PAGE under non-denaturing conditions (FIG. 6B). Bands 1-6 were cut out from the gel, soaked for 30 minutes in 1×gel-loading buffer containing 200 mM β-mercaptoethanol, and individually subjected to SDS-PAGE under denaturing conditions (FIGS. 6A and 6C, lanes 1-6).

Kd [1]: 0.135 nM
Molecule: VEGF-C ΔNΔCHis (from UniProt P49767 103-225) (ligand)

binding result [2]: no binding (tested: 50 ng/ml)
B1: recombinant human VEGF165 (ligand)
chain: APMAEGGGQNHHEVVKFMDVYQRSYCHPIETLVDIFQEYPDEIEYIFKPSCVPLMRCGGCCNDEGLECVPTEESNITMQIMRIKPHQGQHIGEMSFLQHNKCECRPKKDRARQENPCGPCSERRKHLFVQDPQTCKCSCKNTDSRCKARQLELNERTCRCDKPRR
notes: Bought protein; also called recombinant human VEGF (R&D Systems)

binding result [3]: binds
B2: 29 kD VEGF-C polypeptide (beginning with amino acid 228 of prepro-VEGF-C) (other)
chain: SLPATLPQCQAANKTCPTNYMWNNHICRCLAQEDFMFSSDAGDDSTDGFHDICGPNKELDEETCQCVCRAGLRPASCGPHKELDRNSCQCVCKNKLFPSQCGANREFDENTCQCVCKRTCPRNQPLNPGKCACECTESPQKCLLKGKKFHHQTCSCYRRPCTNRQKACEPGFSYSEEVCRCVPSYWKRPQMS
notes: C-terminal propeptide; also called 29 kD component; 29 kD form

— patent US20030091567A1 (published 2003)
